Results on two molecules are retold here after patent US7919262B2, “14-3-3 proteins for diagnosis of Parkinson's disease” (The UAB Research Foundation, priority 2007, dated 2011).

The test system of test [1] is H4 cells. The experiment in a line: α-syn toxicity assay, adenylate kinase released into the media. The test is classed as cell-based. Conditions: co-transfected with wildtype α-syn; 24 hours after transfection; vs empty vector. The protocol: Briefly, H4 cells were transfected with wildtype α-syn and each of the 14-3-3 polypeptide isoforms or empty vector controls as discussed above. Twenty-four hours after transfection, cell death was assayed by adenylate kinase activity in the media (n=4, *p<0.05, **p<0.01, ***p<0.001).
Primers against each of the human 14-3-3 isoforms were designed using Primer3. Primers against 14-3-3β (NM_018753) were 5′ […] 3′ (forward; SEQ ID NO. 9) and 5′ […] 3′ (reverse; SEQ ID NO. 10). Primers against 14-3-3ε (NM_009536) were 5′ […] 3′ (forward; SEQ ID NO. 11) and 5′ […] 3′ (reverse; SEQ ID NO. 12). Primers against 14-3-3γ (NM_018871) were 5′ […] 3′ (forward; SEQ ID NO. 13) and 5′ […] 3′ (reverse; SEQ ID NO. 14). Primers against 14-3-3η (NM_011738) were 5′ […] 3′ (forward; SEQ ID NO. 15) and 5′ […] 3′ (reverse; SEQ ID NO. 16). Primers against 14-3-3θ (NM_011739) were 5′ […] 3′ (forward; SEQ ID NO. 17) and 5′ […] 3′ (reverse; SEQ ID NO. 18). Primers against 14-3-3σ (NM_018754) were 5′ […] 3′ (forward; SEQ ID NO. 19) and 5′ […] 3′ (reverse; SEQ ID NO. 20). Primers against 14-3-3ζ(NM_011740) were 5′ […] 3′ (forward; SEQ ID NO. 21) and 5′ […] 3′ (reverse; SEQ ID NO. 22). Primers against GAPDH were 5′ tggtgaagcaggeatctga 3′ (forward; SEQ ID NO. 23) and 5′ […] […] All cells stained for α-syn were scored as positive or negative for α-syn aggregates, with the rater blind to experimental condition. • α-syn toxicity assay H4 cells were transfected with α-syn and either empty vector control or a 14-3-3 isoform using Superfect transfection reagent (Qiagen). 24 hours after transfection, toxicity was measured by the amount of adenylate kinase released into the media using the ToxiLight™ kit (Cambrex). • Creation of stable cell lines Each 14-3-3 isoform was subcloned into the mammalian expression vector mcDNA3.1/V5-His (Invitrogen). […] Protein concentrations of supernatants were determined by the bicinchoninic acid assay (BCA; Pierce, Rockford, Ill.). […]

The test system of test [2] is naïve M17 cells. The experiment in a line: Rotenone toxicity after transient transfection, scoring of apoptotic nuclei. It is filed as cell-based, human. To be noted: rotenone 0, 0.2 or 1 μM for 24 hours, vs control transfection. The protocol: FIGS. 6A-D show M17 cells overexpressing 14-3-3θ are resistant to rotenone treatment. Cell lines stably-transfected with either 14-3-3θ or empty vector were treated with varying concentrations of rotenone (0-25 μM) for 24 hours (FIG. 6A), 30 hours (FIG. 6B), or 48 hours (FIG. 6C). Cell death was assayed by LDH release into the culture media. LDH release into media was normalized to total LDH release for each well. The 14-3-3θ-overexpressing line was more resistant to rotenone in a dose-dependent manner compared to control stable cells at all time points tested. […] Rater was blind to experimental condition. n=8 for each experimental condition. *p<0.05, ***p<0.001 (Bonferroni's multiple comparison test).
The effects of 14-3-3θ overexpression on rotenone toxicity was also examined by transient transfection of this isoform into naïve M17 cells. Briefly, M17 cells were transfected with V5-tagged 14-3-3θ isoform or enhanced yellow fluorescent protein (EYFP) (control) and were treated with rotenone for 24 hours at 0, 0.2, or 1 μM rotenone. Because of the relatively low rates of transfection, after the treatment period cells were fixed and stained against V5 (or GFP in the case of control), followed by Hoechsht 33342 staining. With the rater blind to experimental condition, the nuclei of cells that stained for V5 or GFP were scored as normal or apoptotic.

The subject of test [3] is Transgenic C. elegans worms that overexpress human wildtype α-syn. As to the kind of experiment: Dopaminergic neuron loss in α-syn transgenic worm model. Conditions: human 14-3-3θ overexpressed along with α-syn. The test is classed as in vivo. The text has this: FIG. 10. Overexpression of 14-3-3θ protects against dopaminergic cell loss in the α-syn transgenic C. elegans worm model. Double transgenic worms were created in which the 14-3-3θ isoform was overexpressed along with α-syn.
We turned to the C. elegans model of PD, in which human wildtype α-syn is overexpressed. […] Double transgenic worms were created in which the 14-3-3θ isoform was overexpressed along with α-syn. […] In contrast, 18.9% of worms that overexpressed human 14-3-3θ along with α-syn had all six dopaminergic neurons at seven days (FIG. 10; p<0.001 compared to α-syn worms). 12.9% of worms had the full anterior complement of dopaminergic neurons at 10 days (FIG. 10; p<0.00001).

B1: 14-3-3θ: 14-3-3 polypeptide θ isoform, overexpressed from V5/His-tagged pcDNA3.1 vector (or as transgene in C. elegans) (protein, UniProt P27348 1-245, looked up)
14-3-3 protein theta: MEKTELIQKAKLAEQAERYDDMATCMKAVTEQGAELSNEERNLLSVAYKNVVGGRRSAWRVISSIEQKTDTSDKKLQLIKDYREKVESELRSICTTVLELLDKYLIANATNPESKVFYLKMKGDYFRYLAEVACGDDRKQTIDNSQGAYQEAFDISKKEMQPTHPIRLGLALNFSVFYYEILNNPELACTLAKTAFDEAIAELDTLNEDSYKDSTLIMQLLRDNLTLWTSDSAGEECDAAEGAEN
modifications: V5/His tag
B1: the “effect on α-syn dependent cell death (adenylate kinase activity in the media)” value in test [1] is recorded as “protective effects”. Also, the “cell death (apoptotic nuclei) in response to rotenone treatment” value in test [2] is on record as “decreased cell death”. Also, in test [3] (10 days), the “worms with the full anterior complement of dopaminergic neurons” value is 12.9%. For the same molecule, the “worms with all six anterior dopaminergic neurons present” value in test [3] (seven days) was 18.9%.

B2: 14-3-3ζ: 14-3-3 polypeptide ζ isoform, overexpressed from expression vector (protein, UniProt P63104 1-245, looked up)
14-3-3 protein zeta/delta: MDKNELVQKAKLAEQAERYDDMAACMKSVTEQGAELSNEERNLLSVAYKNVVGARRSSWRVVSSIEQKTEGAEKKQQMAREYREKIETELRDICNDVLSLLEKFLIPNASQAESKVFYLKMKGDYYRYLAEVAAGDDKKGIVDQSQQAYQEAFEISKKEMQPTHPIRLGLALNFSVFYYEILNSPEKACSLAKTAFDEAIAELDTLSEESYKDSTLIMQLLRDNLTLWTSDTQGDEAEAGEGGEN
B2: in test [1], the “effect on α-syn dependent cell death (adenylate kinase activity in the media)” value was “protective effects”.
